Reference: the supplement of paper PMC9732359
± gives the uncertainty stated by the source.

Experiment: protein stability index of a GFP-peptide fusion (yeast GPS) (PSI 1-4); higher = more stable; sorted into four equal gates, so the index is relative within each strain
Procedure, shortened: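 Each library plasmid carries Cherry plus GFP with a tiled 17-residue yeast protein peptide fused downstream, and the pooled library was carried in yeast. Mid-log cultures in leucine-free medium were sorted into four equal gates by GFP/Cherry ratio. Reads from Illumina sequencing of PCR-amplified plasmids from each gate were assigned to strains by barcodes. Per peptide, the protein stability index was computed as the summed products of gate read frequency and gate number.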

Sequence | protein stability index (doa10∆) | protein stability index (pdr5∆) | protein stability index (ubr1∆) | protein stability index (san1∆)
SGEEKGKKVTGFKDEVL [RPS1A] | 1.39 ± 0.24 | 1.73 ± 0.22 | 1.61 ± 0.14 | –
GGCDYIFSLLTGYPDEP [CYT1] | 3.42 ± 0.14 | 3.39 ± 0.15 | 3.08 ± 0.081 | 2.77 ± 0.081
QLNKVVDQLFEKASVLY [RPN6] | 2.55 ± 0.051 | 2.06 ± 0.052 | 2.43 ± 0.055 | 2.62 ± 0.05
GPKLRASDLKINELFKK [RPN8] | 1.98 ± 0.12 | 1.42 ± 0.11 | 1.08 ± 0.13 | 1.1 ± 0.13
ERSLRQKYNLLHVLPTL [SNM1] | 1.22 ± 0.07 | 1.3 ± 0.13 | 1.35 ± 0.17 | 2.03 ± 0.28
SLKDLSSLRNQELLNAE [RPN3] | – | 2.15 ± 0.22 | – | 3.34 ± 0.14
EMEVDAEGEEVEVKAEI [RPN1] | 3.48 ± 0.091 | 3.74 ± 0.24 | 3.39 ± 0.079 | 3.55 ± 0.093
NLRTQVTQQKRSLDENR [SMC1] | 3.24 ± 0.12 | 3.09 ± 0.066 | 3.07 ± 0.086 | 2.91 ± 0.092
RTDATFIRVIGSELVQK [RPT1] | 3.2 ± 0.082 | 3.19 ± 0.057 | 2.98 ± 0.051 | 3.04 ± 0.072
QSKIDLTKKKNEEINKK [SEM1] | – | 3.47 ± 0.24 | 3.21 ± 0.076 | 2.87 ± 0.14
NPVALEQKLVDLLKFEN [BRR2] | 2.94 ± 0.17 | 3.23 ± 0.11 | 2.47 ± 0.12 | 2.3 ± 0.12
GEMERDCMIAHGAASFL [RPB2] | 3.04 ± 0.13 | 3.08 ± 0.085 | 2.76 ± 0.089 | 3.04 ± 0.073
ENDIEIKGPEFKFSGTV [YLR335W/NUP2] | 2.72 ± 0.14 | 3.04 ± 0.12 | – | 3.07 ± 0.15
STKSNKTRNPLTHSTPK [RPL8A] | 2.44 ± 0.29 | 1.95 ± 0.14 | 1.88 ± 0.15 | –
SQHGQGNNPSWVNNPKK [YDL088C/ASM4] | 3.2 ± 0.14 | 3.52 ± 0.16 | – | –
RENVKSKDEPVSKAVES [SIR4] | 3.58 ± 0.15 | 3.73 ± 0.12 | 3.31 ± 0.18 | 2.93 ± 0.19
WKEVMFDPSKDVLINEL [CDC53] | 2.41 ± 0.074 | 1.87 ± 0.052 | 1.91 ± 0.073 | 1.8 ± 0.12
FVTQFRHLRRTGKVSEF [RET1] | 3.15 ± 0.24 | 2.5 ± 0.17 | 2.41 ± 0.075 | 3.07 ± 0.093
LQNKSFKSVLPIVLLNT [UBP6] | 1.91 ± 0.067 | 1.45 ± 0.1 | 2.1 ± 0.072 | 1.87 ± 0.12
LYQIWIVMVWLKENTYV [YDL116W/NUP84] | 1.85 ± 0.061 | 1.77 ± 0.062 | 2.14 ± 0.046 | 2.11 ± 0.097
FLRTQFLKLYVLVKWTR [RGR1] | 1.46 ± 0.084 | 1.95 ± 0.065 | 1.56 ± 0.06 | 1.63 ± 0.11

Sequence | protein stability index (doa10∆) | protein stability index (pdr5∆) | protein stability index (ubr1∆) | protein stability index (san1∆)
VVVIDGKGHLVGRLASV [RPL16A] | 1.66 ± 0.065 | 1.64 ± 0.054 | 1.97 ± 0.052 | 1.71 ± 0.1
VVDANGCVNSLISGPRN [YMR129W/POM152] | 2.86 ± 0.15 | 2.69 ± 0.12 | 2.66 ± 0.081 | 2.97 ± 0.13
LICPQYGTENKDGEDII [CSL4] | 3.23 ± 0.15 | 3.41 ± 0.13 | 3.28 ± 0.13 | 3.12 ± 0.14
KKFGGKGARSRFQKSYR [RPS16A] | 3.29 ± 0.12 | 3.27 ± 0.097 | 3.32 ± 0.079 | 3.27 ± 0.072
RLLAKDAMIAQRSKKIQ [DIS3] | 1.24 ± 0.1 | 1.92 ± 0.091 | 1.59 ± 0.069 | 1.41 ± 0.072
HSGELMRQQSKELQQLQ [SMC1] | 2.89 ± 0.15 | 2.98 ± 0.13 | 2.7 ± 0.27 | 2.9 ± 0.11
VFYAELNEFFTRELAEE [RPS3] | 3.16 ± 0.13 | 3.24 ± 0.16 | 3.28 ± 0.082 | 3.26 ± 0.09
KLLKGATLYIPKALRFD [FAS2] | – | 2.79 ± 0.22 | – | 2.88 ± 0.13
IEAIDEYNKPNSEKFVF [ISW2] | 2.6 ± 0.1 | 2.76 ± 0.075 | 3.15 ± 0.075 | 3.01 ± 0.092
VLEKYEVIGYIAAGTYG [SSN3] | 1.34 ± 0.088 | 1.55 ± 0.14 | 1.28 ± 0.075 | –
TFEQFKDTIVKEAEDKT [RPC37] | – | – | 2.43 ± 0.29 | –
VDIVNQWFLQYQNQFVE [YML103C/NUP188] | 1.79 ± 0.055 | 2.1 ± 0.054 | 2.29 ± 0.042 | 1.81 ± 0.065
LTEGGSILEEKIAVLNN [SMC1] | 3.31 ± 0.22 | 2.85 ± 0.15 | 2.87 ± 0.28 | 3.32 ± 0.11
ELQMRSFLKEGDLLNAE [RRP4] | 2.71 ± 0.071 | 3.27 ± 0.11 | 3.23 ± 0.08 | 3.07 ± 0.087
GWFHSHPGYDCWLSNID [RRI1] | 2.85 ± 0.075 | 3.05 ± 0.054 | 2.81 ± 0.071 | 2.77 ± 0.074
INPESREIVMPAHTKYM [ITC1] | 1.63 ± 0.17 | 1.5 ± 0.2 | 2.18 ± 0.11 | 1.69 ± 0.14
NGTTVWGTLQSVSPQMN [SMD1] | 3.57 ± 0.25 | 3.01 ± 0.24 | 2.96 ± 0.18 | 3.39 ± 0.19
KQTDTGITHFRAGMTHE [PRP8] | 2.36 ± 0.055 | 2.61 ± 0.047 | 2.94 ± 0.037 | 3.08 ± 0.057
ASSWAKKIAQRERRAAL [RPL14A] | 2.53 ± 0.099 | 3.32 ± 0.14 | 2.22 ± 0.079 | 2.62 ± 0.18
NYELEKIADNISKDENE [YDL116W/NUP84] | 3.03 ± 0.09 | 3.04 ± 0.077 | 3.14 ± 0.055 | 2.98 ± 0.048
ATPGRLIDSLENHLLVM [PRP28] | 2.66 ± 0.067 | 2.37 ± 0.05 | 2.1 ± 0.06 | 2.06 ± 0.11
